Data as given in PMC4512254.

Molecular target: all other cases (NTSR1 nanodisc preparations other than WT in 100% POPC nanodiscs)
Assay: radioligand binding

## [3H]NTS ([3,11-tyrosyl-3,5-3H(N)]-neurotensin) (peptide)
  Kd: 0.5 nM
